# T1: pneumolysin (Streptococcus pneumoniae, UniProt P0C2J9 1-471)
# T1 chain: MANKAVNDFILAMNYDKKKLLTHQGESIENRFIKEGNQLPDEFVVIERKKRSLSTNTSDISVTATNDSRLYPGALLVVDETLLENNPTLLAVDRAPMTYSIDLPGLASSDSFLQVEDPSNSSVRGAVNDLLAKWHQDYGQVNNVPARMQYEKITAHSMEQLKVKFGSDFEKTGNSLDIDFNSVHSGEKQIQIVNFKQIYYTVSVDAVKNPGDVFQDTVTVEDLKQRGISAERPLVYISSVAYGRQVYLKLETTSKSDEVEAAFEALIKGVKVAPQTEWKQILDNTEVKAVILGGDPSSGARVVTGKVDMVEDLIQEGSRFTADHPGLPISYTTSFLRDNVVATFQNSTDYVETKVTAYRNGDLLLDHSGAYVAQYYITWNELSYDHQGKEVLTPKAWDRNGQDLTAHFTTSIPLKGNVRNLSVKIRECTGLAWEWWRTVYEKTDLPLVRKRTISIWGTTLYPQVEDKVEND
# B1: high-molecular-weight kininogen (natural protein)
# chain: QESQSEEIDCNDKDLFKAVDAALKKYNSQNQSNNQFVLYRITEATKTVGSDTFYSFKYEIKEGDCPVQSGKTWQDCEYKDAAKAATGECTATVGKRSSTKFSVATQTCQITPAEGPVVTAQYDCLGCVHPISTQSPDLEPILRHGIQYFNNNTQHSSLFMLNEVKRAQRQVVAGLNFRITYSIVQTNCSKENFLFLTPDCKSLWNGDTGECTDNAYIDIQLRIASFSQNCDIYPGKDFVQPPTKICVGCPRDIPTNSPELEETLTHTITKLNAENNATFYFKIDNVKKARVQVVAGKKYFIDFVARETTCSKESNEELTESCETKKLGQSLDCNAEVYVVPWEKKIYPTVNCQPLGMISLMKRPPGFSPFRSSRIGEIKEETTVSPPHTSMAPAQDEERDSGKEQGHTRRHDWGHEKQRKHNLGHGHKHERDQGHGHQRGHGLGHGHEQQHGLGHGHKFKLDDDLEHQGGHVLDHGHKHKHGHGHGKHKNKGKKNGKHNGWKTEHLASSSEDSTTPSAQTQEKTEGPTPIPSLAKPGVTVTFSDFQDSDLIATMMPPISPAPIQSDDDWIPDIQIDPNGLSFNPISDFPDTTSPKCPGRPWKSVSEINPTTQMKESYYFDLTDGLS
# B2: factor XII (zymogen) (natural protein)
# chain: IPPWEAPKEHKYKAEEHTVVLTVTGEPCHFPFQYHRQLYHKCTHKGRPGPQPWCATTPNFDQDQRWGYCLEPKKVKDHCSKHSPCQKGGTCVNMPSGPHCLCPQHLTGNHCQKEKCFEPQLLRFFHKNEIWYRTEQAAVARCQCKGPDAHCQRLASQACRTNPCLHGGRCLEVEGHRLCHCPVGYTGAFCDVDTKASCYDGRGLSYRGLARTTLSGAPCQPWASEATYRNVTAEQARNWGLGGHAFCRNPDNDIRPWCFVLNRDRLSWEYCDLAQCQTPTQAAPPTPVSPRLHVPLMPAQPAPPKPQPTTRTPPQSQTPGALPAKREQPPSLTRNGPLSCGQRLRKSLSSMTRVVGGLVALRGAHPYIAALYWGHSFCAGSLIAPCWVLTAAHCLQDRPAPEDLTVVLGQERRNHSCEPCQTLAVRSYRLHEAFSPVSYQHDLALLRLQEDADGSCALLSPYVQPVCLPSGAARPSETTLCQVAGWGHQFEGAEEYASFLQEAQVPFLSLERCSAPDVHGSSILPGMLCAGFLEGGTDACQGDSGGPLVCEDQAAERRLTLQGIISWGSGCGDRNKPGVYTDVAYYLAWIREHTVS
# B3: plasma kallikrein (zymogen) (natural protein)
# chain: not shown
# Biological target: T1, pneumolysin
# Experiment: SPR
row,Binder,koff
1,B1,0.00208 s⁻¹
2,B2,0.00198 s⁻¹
3,B3,0.00942 s⁻¹

# Biological target: T1, pneumolysin
# Experiment: SPR
# Remark: another data set of the same source
row,Binder,Ka
1,B1,573000 M⁻¹
2,B2,4.41e+07 M⁻¹
3,B3,3.04e+06 M⁻¹

# Biological target: T1, pneumolysin
# Experiment: SPR
# Remark: another data set of the same source
row,Binder,Kd
1,B1,12.6 µM
2,B2,0.0249 µM
3,B3,0.328 µM

# From PMC10643893 (2022)
